Laboratory results from article PMC11948038 (2025).

Target: cytochrome c (UniProt P99999 2-105)
Assay: NMR

cytochrome c, sequence (P99999 2-105): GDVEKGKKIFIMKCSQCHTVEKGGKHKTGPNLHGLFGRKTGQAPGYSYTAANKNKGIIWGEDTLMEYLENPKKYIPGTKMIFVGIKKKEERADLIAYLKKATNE

B1: full-length ANP32A (natural protein)
chain: MEMGRRIHLELRNRTPSDVKELVLDNSRSNEGKLEGLTDEFEELEFLSTINVGLTSIANLPKLNKLKKLELSDNRVSGGLEVLAEKCPNLTHLNLSGNKIKDLSTIEPLKKLENLKSLDLFNCEVTNLNDYRENVFKLLPQLTYLDGYDRDDKEAPDSDAEGYVEGLDDEEEDEDEEEYDEDAQVVEDEEDEDEEEEGEEEDVSGEEEEDEEGYNDGEVDDEEDEEELGEEERGQKRKREPEDEGEDDD
Kd: 379 µM
